The record followed here is patent US20200010567A1 (NEURIMMUNE, published 2020).

For the experiment, the target named is T1, (GA)15: H-CHHHHHH(GA)15-OH.
T1 construct: synthetic, not coupled to BSA; also called poly-GA DPR protein peptide
T1 peptide: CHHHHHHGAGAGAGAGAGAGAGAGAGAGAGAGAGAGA
The experiment is described as follows: indirect ELISA, uncoupled peptide coated, antibody titrated [also D00010 FIG. 2H]. On the procedure: In brief, dipeptide repeat proteins were synthesized and purified by Schafer-N(Copenhagen, Denmark): (GA)₁₅: H-CHHHHHH(GA)₁₅-OH; (GP)₁₅: H-C(GP)₁₅-OH; (GR)₁₅: H-C(GR)₁₅-OH; (PA)₁₅: H-C(PA)₁₅-OH; (PR)₁₅: H—C(PR)₁₅-OH. 96-well microplates (Corning Incorporated, Corning, USA) were coated with dipeptide repeat protein peptides at a concentration of either 5 μg/ml or 20 μg/ml in coating buffer (15 mM Na₂CO₃, 35 mM NaHCO₃, pH 9.42). Non-specific binding sites were blocked for 1 h at room temperature with PBS/0.1% Tween®-20 containing 2% BSA (Sigma-Aldrich, Buchs, Switzerland). Primary antibodies were diluted to the indicated concentrations and incubated for 1 h at room temperature, followed by incubation with a donkey anti-human IgG Fcγ-specific antibody conjugated with HRP (Jackson ImmunoResearch Laboratories, Inc., West Grove, USA). Binding was determined by measurement of HRP activity in a standard colorimetric assay. EC₅₀ values were estimated by non-linear regression using GraphPad Prism software (San Diego, USA). The binding specificity and EC₅₀ of human-derived antibodies for C9orf72 dipeptide repeat protein peptides (GA)₁₅, (GP)₁₅, (GR)₁₅, (PA)₁₅ and (PR)₁₅ were determined by indirect ELISA.
In general terms: ELISA stands for enzyme-linked immunosorbent assay.

B1: NI-308.46E9 (antibody, V domains shown)
VH: QVQLQESGPGLVKPSETLSLTCTVSGASISGSTYYWGWIRQPPGKGLEYIGRIYYSGSTYYNPSLKSRATISVDTSKNQLSLTLSSVTAADTAVYYCVRPFYAGSGNSPFDYWGQGTLVTVSS
VL: CEIVLTQSPATVSVSPGERATLSCRASQSVSTNLAWYQQKPGQPPRLLIYGASTRATGIPARFSGSGSGAEFTLTISSLQSEDFVVYYCQQYNNWPPAFGGGTKVEIK
notes: Recombinant complete human IgG1, kappa
As usually defined, the EC50 is the concentration at which the effect is half-maximal. Read a low EC50 as an effect from little substance. As for B1, the EC50 was above 200 nM.
